Several values for one entry are separate records, joined by “and”; a condition that tells them apart may be missing. Equal values may be shown once. Entries after “also recorded” stand apart in the source; their conditions may differ.
B1: VHH antibody ENB-1A4 (VHH)
VHH: EVQLVESGGGLVQAGGSLRLSCAASGSIFSTNVMGWYRQAPGKQREFVAGITIGGTARYPDSVKGRFTISRDNTQNTVYLQMNNLKPEDTAVYYCNAVLPSDQRRWSWGQGTQVTVSS
B2: EAT-1F2 (protein, listed as Camelus sp.)
VHH: EVQLVESGGGLVQAGGSLRLSCAGSGRTGSLYSMGWFRQAPGKEREFVAAITWRPSSTYYADSVKGRFTISRDDAKNTVYLQMNSLKPEDTAVYFCAARPRGGLSPTPQAYDYWGQGTQVTVSSAAASGSLEQKLISEEDLNGAAHHHHHHGAA
modifications: REGION 1..154: note = Description of sequence: EAT-1F2 antibody
B3: VHH antibody ENB-1D11 (VHH)
VHH: EVQLVESGGGLVQTGGSLRLSCTASGTIDMTYGLIWYRQAPGKERELVASIRRDGRTNYADSVKGRFTISIDNAKNSIHLQMNSLKPDDTARYYCNSPYHALWGQGTQVTVSS
B4: EAT-1G4 (protein, listed as Camelus sp.)
VHH: EVQLVESGGGLVQPGGSLRLSCAASGSIATINDMGWFRQAPGKQRDWVATIVSDGSTAYADSVKGRFTISRDNAKNTVYLQMNSLKPEDTAVYYCSARRHYGQGTQVTVSSAAASGSLEQKLISEEDLNGAAHHHHHHGAA
modifications: REGION 1..141: note = Description of sequence: EAT-1G4 antibody

Assays:
[1] = biological target: recombinant NetB (wild type NetB), Clostridium perfringens (Clostridium perfringens); assay: cell-based or functional assay
[2] = tested on: Clostridium perfringens alpha toxin; format: biochemical

| Molecule | lowest VHH concentration neutralizing NetB haemolysis [1] | neutralization of alpha toxin lecithinase activity (in words) [2] | residual lecithinase activity [2] | lecithinase activity neutralized [2] [%] |
| --- | --- | --- | --- | --- |
| B1 | 1.25 µM and 0.625 µM | – | – | – |
| B2 | – | high neutralizing capacity; also recorded: unable to completely neutralize | about 25% | – |
| B3 | 1.25 µM and 0.625 µM | – | – | – |
| B4 | – | less capable of neutralizing | – | 100 |

— US20240390433A1, “GENETICALLY MODIFIED BACILLUS SUBTILIS STRAIN AND USE AS A LIVE DELIVERY AND […]” (BiomEdit, LLC, priority 2021, published 2024)
